Source: the nanobody polyreactivity screen of Harvey et al. (2022)

Assay: yeast display, Sf9 membrane polyspecificity reagent, FACS + sequencing; frameworks hold sequencing errors
How it was run: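 Genes from sorted yeast were amplified by colony PCR, read by MiSeq 2 × 250 sequencing and filtered on CDR length. These cells carried a synthetic nanobody library in Saccharomyces cerevisiae BJ5465 and were sorted by FACS into low and high (top ~1%) gates on anti-HA and streptavidin fluorescence. Polyreactivity is labelled according to the gate of origin.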

| Sequence | polyreactivity (PSR sort gate) |
| --- | --- |
| QVQLVESGGGLVQAGGSLRLSCAASGSTLGRNAMVWYRQAPGKERELVAAITTSGGSTYYADSVKGRFTISRDNAKNTVYLQMNSLKPEDTAVYYCAARTGYRNYGYWGQGSQVTVSS | high polyreactivity |
| QVQLVESGGGLVQAGGSLRLSCAASGSTLGSNAMGWYRQAPGKERELVAAITWSGGTTYYADSVKGRFTISRDNAKNTVYLQMISLKPEDTAVYYCATGQSVIYRYEYWGQGTKVTVSS | low polyreactivity |
| QVQLVESGGGLVQAGGSLRLSCAASGSTLGYNAMGWYRQATGKERELVAGISRNGGSTFYADSVKGRFTISRDYAKYTLYLQMNSLKPEDTAVYYCARYYTHSGGFRVRIYYYWGQATQVTVSS | low polyreactivity |
| QVQLVESGGGLVQAGGSLRLSCAASGSTLGYNVMAWYRQAPGKERELVAAISGEGSTNYADSVKGRFTISRDNAKNTVYLQMNSLKPEDTAVYYCAADSRDDYEYWRQGTQVTVSS | low polyreactivity |
| QVQLVESGGGLVQAGGSLRLSCAASGSTLGYNVMGCYIQAPGKERELVAAISGDGSTNYADSVKGRFTISRDNAKNTVYLQMNSLKPEDTAVYYCAARPGWFAGYEYWGQGTQVTVSS | low polyreactivity |
| QVQLVESGGGLVQAGGSLRLSCAASGSTLGYYAMGWYRQAPGKERELVAAIRYSDGNTYYADSVKGRFTISRDNAKNTVYLQMNSLKPEDTAVYYCAADGGYYGREYWGQGTQVTVSS | high polyreactivity |
| QVQLVESGGGLVQAGGSLRLSCAASGSTLGYYTMGWYRQAPGKERELVAAIDWSGGSTYYADSVKGRFTISRDNAKNTVYLQMNSLKPEDTAVYYCAVDYTYSYVDYWSEYDYWGQGTQVTVSS | low polyreactivity |
| QVQLVESGGGLVQAGGSLRLSCAASGSTLHSYAMGWYRQAPGKERELVAAISFRGGSTYADSVKGRFTISRDNAKNTVYLQMNSLKPEDTAVYYCAAYSLYTMYWGQGTQVTVSS | low polyreactivity |
| QVQLVESGGGLVQAGGSLRLSCAASGSTLIFYAMGWYRQAPGKERELVAAIRFSGGTTYYADSVKGRFTISRDNAKNTVYLQMNSLKPEDTAVYDCAADPRPAYGYYYLYADFDYWGLGTQVTVSS | low polyreactivity |
| QVQLVESGGGLVQAGGSLRLSCAASGSTLIGYAMGWYRQAPGKERELVAVINRSGGRTYYADSVKGRFTISRDNSKNTVYLQMNSLKPEDTAVYYCAARPTALSYDSWGQGTQVTVSS | high polyreactivity |
| QVQLVESGGGLVQAGGSLRLSCAASGSTLKLYVMGWYRQAPGKERELVAAISYSGGSTNYADSVKGRFTISRDNAKNTVYLQMNSLKPEDTAVYYCAAAGYKWYYKYYYWGQGTQVTVSS | high polyreactivity |
| QVQLVESGGGLVQAGGSLRLSCAASGSTLKSNVMGWYRQAPGKERELVAAISSSGGSTSYADSVKGRFTISRDNAKNTVYLLMKSLNPEDTAVYYCAARMGRYFWNSGVDYWGQGTQVTVSS | high polyreactivity |
| QVQLVESGGGLVQAGGSLRLSCAASGSTLLGYTMGWYRQAPGKERELVAVISWSGGGTYYADSVKGRFTISRDNAKNTVYLQMNSLKPEDTAVYYCAAETVLGYWYYRKYYYWGQGTQVTVSS | high polyreactivity |
| QVQLVESGGGLVQAGGSLRLSCAASGSTLLSYTMGWYRQAPGKERELVASITTSGGSTYYADSVKGRFTISRDNAKNTVYLQMNSLKPEDTAVYYWGQGTQVTVSS | low polyreactivity |
| QVQLVESGGGLVQAGGSLRLSCAASGSTLLTYTMGWYRQAPGKERELVASITTSARSTYYADSVKGRFTISRDNAKNTVYLQMNSLKPEDTAVYYWGQGTQVTVSS | low polyreactivity |
| QVQLVESGGGLVQAGGSLRLSCAASGSTLNRYAMGWYRQAPGKERELVAAISISGGRTYYADSVKGRFTISRDNAKNTVYLQMNSLKPEDTAVYYCAADQYYYRYIRTSKYDYWGQGTQVTVSS | high polyreactivity |
| QVQLVESGGGLVQAGGSLRLSCAASGSTLNSYVMGWYRQAPGKERELVATIRSGSSTNYADSVKGRFTISRDNAKNTVYLQMNSLKPEDTAVYDCAADAYSLCYDSWGQGTQVTVSS | low polyreactivity |
| QVQLVESGGGLVQAGGSLRLSCAASGSTLNYNAMGWYRQAPGKERELVAAISWSGGSTYYADSVKGRFTISRDNAKNTVYLQMNSLKPEDTAVYYCAADQSTVLDVGSWGQGTQVTGSS | low polyreactivity |
| QVQLVESGGGLVQAGGSLRLSCAASGSTLNYYAMGWYRQAPGKERELVAAITWSGGSTSYADSVKGRFTISRDNAKNTVYLPMNSLKRDDTAVYYCATDFPTVQLYETDWLSSDMGYWGQGTQVNVSS | low polyreactivity |
| QVQLVESGGGLVQAGGSLRLSCAASGSTLPANAMGWYRQAPGKERELVAAITITTDGSTYYADSVKGRFTISRDNAKNTVYLQMNSLKAEDTAVYYCAVARYRYHIRKMGYWGQGTQVTVSS | low polyreactivity |
| QVQLVESGGGLVQAGGSLRLSCAASGSTLPGNVMGWYRQAPGKERELVAAISKRGASTYYADSVKGRFTISRDNAKNNVYLQTPRLKPEDSAVYYCASRTRGSVVRFDYWGQGTQVTVSS | high polyreactivity |
| QVQLVESGGGLVQAGGSLRLSCAASGSTLPSYAMGWYRQAPGKERELVAAISSSGGRTYYADSVKGRFTISRDNAKNTVYLQMNSLKPEDTAVYYCAALSVANYHGTDSGYWGQGTQVTVSS | high polyreactivity |

| Sequence | polyreactivity (PSR sort gate) |
| --- | --- |
| QVQLVESGGGLVQAGGSLRLSCAASGSTLPTNAMGWYRQAPGKEREFVAAISDNGGSTYYADSVKGRFTISRDNAKNTVYLQMNSLKPEDTAVYYCAADNFAPEFYYWGQGTQVTVSS | low polyreactivity |
| QVQLVESGGGLVQAGGSLRLSCAASGSTLPYNAMGWYRQAPGKERELVAAISKSGGRTYYADSVKGRFTISRDNAKNTVYLQMNSLKPEDTAVYYCNAGPYRGGGGSSRYYWGQGTQVTVSS | high polyreactivity |
| QVQLVESGGGLVQAGGSLRLSCAASGSTLPYYAMGWYRQAPGKERELVADITARGGTYYADSVKGRFTISRDNAKNTVYLQMNSLKPEDTAVYYCAAEDYWSPGYDYWGQGTQVTVSS | high polyreactivity |
| QVQLVESGGGLVQAGGSLRLSCAASGSTLRGNAMGWYRQAPGKERELVAAISWSGGITYYADSVKGRFTISRDNAKNTVYLQMNSLKPEDTAVYYCAVDRPRGGPTKYERRTKHGYWGQGTQVTVSS | low polyreactivity |
| QVQLVESGGGLVQAGGSLRLSCAASGSTLRGYAMGWYRQAPGEERELVAAISRRGSGTYYADSVKGRFTISRDNAKHTVYLQMNSLKPEETAVYYCNAVNGDYEFGYWGQGTQVTVSS | high polyreactivity |
| QVQLVESGGGLVQAGGSLRLSCAASGSTLRGYAMGWYRQAPGKEMELVAAITRSGGSTYYADSVKGRFTISRDNAKNTVYLQMNSLKPEDTAVYYCNARAFPYYRRFDYWGQGTQVTVSS | high polyreactivity |
| QVQLVESGGGLVQAGGSLRLSCAASGSTLRGYVMGWYRQAPGTERELVAAITQRAGSTYYADSVKGRFTISRDNAKNTVYLQMNSLKPEDTAVYYCRRFYFGKYDYWGQGTQVTVSS | high polyreactivity |
| QVQLVESGGGLVQAGGSLRLSCAASGSTLRYYAMGWYRQAPGKEREFVAAISWRGGSTYYADSVKGRFTISRDNAKNTVYLQMNSLKPEDTAVYYCAAKALYAYRLYDYWGQGTQVTVSS | high polyreactivity |
| QVQLVESGGGLVQAGGSLRLSCAASGSTLRYYAMGWYRQAPGKERELVAAISTGGSTYYADSVKVRFTISRDNAKNTVYLQMNSLKAEDTAVYYCAAEKKTKTYRYDYWGQGTQVTVSS | low polyreactivity |
| QVQLVESGGGLVQAGGSLRLSCAASGSTLRYYAMGWYRQAPGKERELVAAITYSAGRTSYADSVKGRFTISRDNAKNTVYLQMNSLKPEDTAVYYCATQWHSYLRRYDYWGQGTQVTVSS | low polyreactivity |
| QVQLVESGGGLVQAGGSLRLSCAASGSTLRYYAMGWYRQAPGKETEFVAAITASGVTTYYADSVKGRFTISRDNAKNTVYLQMNSLKPEDTAVYYCAARLYYNYRDRYNYWGQGTQVTVSS | high polyreactivity |
| QVQLVESGGGLVQAGGSLRLSCAASGSTLSLYAMGWYRQAPGKERELVAAITSSGGTYYADSVKGRFTISRDNAKNTVYLQMNGLKPEDTAVYYCAAQSYSRMDYWGQGTQVTVSS | high polyreactivity |
| QVQLVESGGGLVQAGGSLRLSCAASGSTLSLYAMGWYRQAPGKERELVAAITSSGGTYYADSVKGRFTISRDNAKNTVYLQMNSLKPEDTAVYYCNAYAKDARSYGYHRVNYWGQGTQVTVSS | high polyreactivity |
| QVQLVESGGGLVQAGGSLRLSCAASGSTLSTYVMGWYRQAPGKERELVAAITRRGGITYYADSVKGRFTISRDNAKNTVYLQMNSLKPEDTAVYYCNRLRYPHTFQTGGYWGQGTQVTVSS | high polyreactivity |
| QVQLVESGGGLVQAGGSLRLSCAASGSTLTWNDMGWYRPAPGKERELVAAIDVNDGSTYYADSVKGRFTISRDNAKNTVYLQMNSLKPEDTAVYYCAEPTDYTWLDSTLADDYWGQGTQVTVSS | low polyreactivity |
| QVQLVESGGGLVQAGGSLRLSCAASGSTLTYYAMGWYRQAPGKERELVAAISVSGGRTYYADSVKGRFTISRDNAKYTVYLQMNSLKPEDTAVYYCNALSSRAGGRGYDYWGQGTHVTVSS | high polyreactivity |
| QVQLVESGGGLVQAGGSLRLSCAASGSTLVIYAMGWYRQAPGKEREFVAAIRWSTGRTYYADSVKGRFTISRDNAKNTVYLQMNSLKPEDTAVYYCNASYWAPNSLPDGFRYDSWGQGTQVTVSS | high polyreactivity |
| QVQLVESGGGLVQAGGSLRLSCAASGSTLVKYAMGWYRQAPGKERELVAAISWSGGRTYYADSVKGRFTISRDNAKNTVYLQMNSLKPEDTAVYYCNAEFRGRPPSFAIKYDYWGQGTQVTVSS | high polyreactivity |
| QVQLVESGGGLVQAGGSLRLSCAASGSTLVLNAMGWYRPATGKERELVAAITISGDTTYYADSVKGRFTISRDNAKNTVYLQMNCLKPEDTAVYYCAAVVSTVDCMEYWGQGTQVTVSS | low polyreactivity |
| QVQLVESGGGLVQAGGSLRLSCAASGSTLVRYAMGWYRQAPGKERELVASISYSGGSTHYADSVKGRFTISRDNAKNTVYLQMNSLKPEDTAVYYCAARRYYSWGGHYYWGQGTQVTVSS | high polyreactivity |
| QVQLVESGGGLVQAGGSLRLSCAASGSTLVTNSMGWYRKAPGKERELVAAITFSGGTTYYADSVKGRFTISLDNAKNTVYLQMNSLKPEDTAVYYCAAEIWLEYVGYDYCGQGTQVTVSS | high polyreactivity |
